Experimental data as given in paper PMC4608358, “Physiological modulation of BiP activity by trans-protomer engagement of the interdomain linker” (eLife, 2015).
Where no end group is shown, it is not given here.

Assays:
[1] = molecular target: the molecule itself; assay: native gel or EMSA; purified BiP proteins (30-50 µM) on a Tris-glycine native gel (4.5% stacking, 7.5% separation), Coomassie stain or immunoblot; with or without ATP (3-5 mM)
[2] = molecular target: T1, wildtype hamster BiP, N-terminally hexahistidine-tagged (hamster, UniProt G3I8R9 19-654); assay: SEC; BiP protein (50 µM) with 1 µM lucifer yellow-labeled tracer (peptide or BiP V461F), 16 hr in HKM; A230 nm and LY fluorescence recorded; with or without SubA (36 ng/µl) before the run; settings: both partners purified
T1 construct: BiP (GRP78), hamster; Construct details are in Supplementary file 1; also called wt BiP; wildtype BiP; source: E. coli M15 (pQE10), purified (Ni-NTA); not shown: His6, N-terminal, kept

[3] = molecular target: T1, wildtype hamster BiP, N-terminally …; assay: SEC; wildtype BiP (50 µM) incubated 16 hr with 1 mM peptide in HKM, SEC-3 column; competition of peptides with oligomerisation; settings: both partners purified
[4] = molecular target: the molecule itself; assay: SEC; purified BiP proteins at 50 µM in HKM buffer (50 mM HEPES-KOH pH 7.4, 150 mM KCl, 10 mM MgCl2), 16 hr at room temperature, no added nucleotide; SEC-3 HPLC column, A230 nm

T1 sequence (G3I8R9 19-654): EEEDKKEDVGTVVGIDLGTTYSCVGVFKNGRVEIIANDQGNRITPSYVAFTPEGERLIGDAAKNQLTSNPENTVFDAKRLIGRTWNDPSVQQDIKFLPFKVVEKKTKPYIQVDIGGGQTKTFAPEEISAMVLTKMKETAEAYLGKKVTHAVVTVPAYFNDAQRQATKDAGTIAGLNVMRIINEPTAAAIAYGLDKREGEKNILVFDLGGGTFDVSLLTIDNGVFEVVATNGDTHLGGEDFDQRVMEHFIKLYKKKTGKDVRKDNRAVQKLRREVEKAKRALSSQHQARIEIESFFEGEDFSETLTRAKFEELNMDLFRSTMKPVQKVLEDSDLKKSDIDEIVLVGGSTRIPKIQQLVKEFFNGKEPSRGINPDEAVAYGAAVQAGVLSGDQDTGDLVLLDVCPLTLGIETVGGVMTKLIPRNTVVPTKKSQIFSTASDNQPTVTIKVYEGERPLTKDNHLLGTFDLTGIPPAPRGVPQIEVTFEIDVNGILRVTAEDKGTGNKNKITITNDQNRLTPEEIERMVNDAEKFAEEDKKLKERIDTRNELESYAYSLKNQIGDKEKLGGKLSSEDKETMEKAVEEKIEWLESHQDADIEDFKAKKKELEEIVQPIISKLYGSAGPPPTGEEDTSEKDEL

B1: BiP^G226D, hamster BiP mutant locked in the domain-uncoupled state (natural protein)
chain: not shown
notes: BiP (GRP78), hamster; Construct details are in Supplementary file 1; source: E. coli, purified; not shown: His6, N-terminal, kept
B1: binds [1].

B2: lucifer yellow-labeled BiP-binding peptide (HTFPAVL-LY) (peptide)
peptide: HTFPAVL-{lucifer yellow}
notes: BiP substrate peptide (Marcinowski et al., 2011), fluorescently labelled; also called Pep-LY
In the case of B2, the “ratio of fluorescent to quantity signal R^(FLU/A230 nm), peak II (peak I set to 1.00)” value [2] is reported as 0.48 and the “ratio of fluorescent to quantity signal R^(FLU/A230 nm), peak III (peak I set to 1.00)” value [2] is reported as 0.26.

B3: BiP^T229A, ATPase activity-deficient mutant of hamster BiP (natural protein)
chain: not shown
notes: BiP (GRP78), hamster; Construct details are in Supplementary file 1; source: E. coli M15 (pQE10), purified (Ni-NTA); not shown: His6, N-terminal, kept
B3: binds [1].

B4: BiP^T37G, hamster BiP mutant locked in the domain-uncoupled state (natural protein)
chain: not shown
notes: as for B1
B4: binds [1].

B5: BiP-binding peptide HTFPAVL (peptide)
peptide: HTFPAVL
notes: well-characterized BiP substrate peptide (Marcinowski et al., 2011); also called BiP substrate peptide
B5: binds [3].

B6: BiP^lidless, hamster BiP lacking its C-terminal lid (∆554–654) (domain or fragment)
chain: not shown
notes: Construct details are in Supplementary file 1; also called lidless BiP; source: E. coli, purified; not shown: His6, N-terminal, kept
B6: binds [4].

B7: peptide derived from the interdomain linker of BiP (DTGDLVLLD) (peptide)
peptide: DTGDLVLLD
notes: interdomain linker of BiP (GRP78), hamster; also called Linker Pep; linker peptide
B7: binds [3].
